Experimental data from patent publication US20220168402A1, “PIP4Ks SUPPRESS INSULIN SIGNALING AND ENHANCE IMMUNE FUNCTION THROUGH A CATALYTIC-INDEPENDENT MECHANISM” (Cornell University, priority 2019, published 2022).
Residue numbers refer to the chain shown, from its start.

T1: PIP5K1A (purified, in vitro kinase assay), Q99755
T1 chain: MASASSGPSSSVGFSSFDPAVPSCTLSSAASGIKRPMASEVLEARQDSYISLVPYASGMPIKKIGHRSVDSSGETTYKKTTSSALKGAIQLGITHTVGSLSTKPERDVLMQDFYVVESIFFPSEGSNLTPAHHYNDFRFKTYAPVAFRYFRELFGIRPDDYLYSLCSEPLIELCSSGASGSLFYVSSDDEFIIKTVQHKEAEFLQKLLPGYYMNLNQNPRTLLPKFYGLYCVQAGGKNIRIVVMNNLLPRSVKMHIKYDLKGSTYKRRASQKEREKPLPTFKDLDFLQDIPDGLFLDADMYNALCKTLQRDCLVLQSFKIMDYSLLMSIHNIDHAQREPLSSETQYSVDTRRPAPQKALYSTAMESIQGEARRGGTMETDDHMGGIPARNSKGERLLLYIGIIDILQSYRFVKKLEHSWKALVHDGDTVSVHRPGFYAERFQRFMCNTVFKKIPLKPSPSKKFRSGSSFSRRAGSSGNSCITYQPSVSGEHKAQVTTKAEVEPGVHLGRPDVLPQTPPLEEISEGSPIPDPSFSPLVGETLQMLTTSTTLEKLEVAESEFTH

B1: PIP4K2C (purified) (protein)
chain: MASSSVPPATVSAATAGPGPGFGFASKTKKKHFVQQKVKVFRAADPLVGVFLWGVAHSINELSQVPPPVMLLPDDFKASSKIKVNNHLFHRENLPSHFKFKEYCPQVFRNLRDRFGIDDQDYLVSLTRNPPSESEGSDGRFLISYDRTLVIKEVSSEDIADMHSNLSNYHQYIVKCHGNTLLPQFLGMYRVSVDNEDSYMLVMRNMFSHRLPVHRKYDLKGSLVSREASDKEKVKELPTLKDMDFLNKNQKVYIGEEEKKIFLEKLKRDVEFLVQLKIMDYSLLLGIHDIIRGSEPEEEAPVREDESEVDGDCSLTGPPALVGSYGTSPEGIGGYIHSHRPLGPGEFESFIDVYAIRSAEGAPQKEVYFMGLIDILTQYDAKKKAAHAAKTVKHGAGAEISTVHPEQYAKRFLDFITNIFA
B2: GST-PIP4K2C^VD (enzyme)
chain: B1 chain with V69E, M70I, L71F, D74N, D75N
notes: the text and the Quik-2CVD primer give EIF, which is used here; not shown: glutathione S-transferase (GST) tag from a pGEX vector
B3: PIP4K2A (purified) (protein)
chain: MATPGNLGSSVLASKTKTKKKHFVAQKVKLFRASDPLLSVLMWGVNHSINELSHVQIPVMLMPDDFKAYSKIKVDNHLFNKENMPSHFKFKEYCPMVFRNLRERFGIDDQDFQNSLTRSAPLPNDSQARSGARFHTSYDKRYIIKTITSEDVAEMHNILKKYHQYIVECHGITLLPQFLGMYRLNVDGVEIYVIVTRNVFSHRLSVYRKYDLKGSTVAREASDKEKAKELPTLKDNDFINEGQKIYIDDNNKKVFLEKLKKDVEFLAQLKLMDYSLLVGIHDVERAEQEEVECEENDGEEEGESDGTHPVGTPPDSPGNTLNSSPPLAPGEFDPNIDVYGIKCHENSPRKEVYFMAIIDILTHYDAKKKAAHAAKTVKHGAGAEISTVNPEQYSKRFLDFIGHILT
B4: PIP4K2B (purified) (protein)
chain: MSSNCTSTTAVAVAPLSASKTKTKKKHFVCQKVKLFRASEPILSVLMWGVNHTINELSNVPVPVMLMPDDFKAYSKIKVDNHLFNKENLPSRFKFKEYCPMVFRNLRERFGIDDQDYQNSVTRSAPINSDSQGRCGTRFLTTYDRRFVIKTVSSEDVAEMHNILKKYHQFIVECHGNTLLPQFLGMYRLTVDGVETYMVVTRNVFSHRLTVHRKYDLKGSTVAREASDKEKAKDLPTFKDNDFLNEGQKLHVGEESKKNFLEKLKRDVEFLAQLKIMDYSLLVGIHDVDRAEQEEMEVEERAEDEECENDGVGGNLLCSYGTPPDSPGNLLSFPRFFGPGEFDPSVDVYAMKSHESSPKKEVYFMAIIDILTPYDTKKKAAHAAKTVKHGAGAEISTVNPEQYSKRFNEFMSNILT

Assays:
[1] = target: PIP5K1A (purified, in vitro kinase assay) (UniProt Q99755)
[2] = target: T1, PIP5K1A (purified, in vitro kinase …)
[3] = target: endogenous PIP5K1A (293T lysate) (UniProt Q99755 1-562, limits assumed); assay: GST pulldown from 293T lysates with bead-bound bait, western blot (FIG. 3J)
Method: These lysates and purified protein were incubated together at 4 degrees for 1 hour before the beads were again pelleted, washed with IP buffer three times, eluted with 2M NaCl, and analyzed by SDS PAGE and western blot.

[4] = target: T2, PIP5K1A (Homo sapiens, UniProt Q99755); assay: In vitro kinase assay: conversion of PI(4)P to radiolabeled PI(4,5)P2 by PIP5K1A with purified PIP4K proteins added; assay type: biochemical; conditions: for inhibition of PIP5K1A activity (PI(4)P to PI(4,5)P2): purified proteins, PI(4)P liposomes, 2-10 fold molar excess of PIP4K
T2 construct: made in house; host or cells: E. coli
Method: BL21 bacterial cells were transfected with pGEX vectors with PIP4K isoform coding sequence variants. Cells were grown in 1 L of TB at 37° at 200 rpm until 0.8 OD, at which point 500 uL of 1M IPTG was added. Cultures were shaken overnight at room temp for protein induction and pelleted at 5000 g for 15 minutes. Cells were lysed (50 mM Tris pH 7.5, 500 mM NaCl, 10 mM MgCl2, 10% glycerol, DTT, lysozyme, protein/phosphatase inhibitors), sonicated for 1 minute (output 4, continuous duty cycle) and spun down at 10,000 g for 1 hour. Supernatant was kept for further purification and cleavage according to manufacturer's protocol using glutathione sepharose beads.
Cells were trypsinized and normalized for cell number. Cell pellets, or E. coli purified proteins were resuspended in HNE buffer (20 mM HEPES pH 7.4, 100 mM NaCl, 0.5 mM EGTA), and sonicated in the presence of 32P-γ-ATP, and liposomes (10 ug PS, 1 ug PI(4)P in 30 mM HEPES pH 7.4, 1 mM EGTA). Liposome lipids were purchased from Avanti. Reactions were stopped by addition of 50 uL of 4N HCL. To extract lipids, 100 μL of MeOH:CHCl3 (1:1) was added and samples were vortexed 2×30 seconds. Samples were spun down at top speed for 2 min and the organic phase containing phosphatidylinositol lipids (bottom) were separated using thin-layer chromatography (TLC) using 1-propanol: 2N acetic acid (65:35 v/v). TLC plates were prepared ahead of time by coating with 1% Potassium Oxalate. Phosphorylated lipids were visualized by autoradiography on a GE Typhoon FLA 7000 and quantified using ImageQuant TL software.

Molecule	in vitro kinase assay: conversion of PI(4)P to radiolabeled PI(4,5)P2 by PIP5K1A (FIG. 4H) [1]	in vitro kinase assay: conversion of PI(4)P to radiolabeled PI(4,5)P2 by PIP5K1A (FIG. 3K) [2]	inhibition of PIP5K1A activity (PI(4)P to PI(4,5)P2) [4]	further results
GST-PIP4K2C 91REN to 91EED	Mutating 74DD to be 74NN or mutating 91REN to be 91 EED within GST-PIP4K2C did not prevent this protein from inhibiting PIP5K1A	–	–	–
GST-PIP4K2C 74DD to 74NN	Mutating 74DD to be 74NN or mutating 91REN to be 91 EED within GST-PIP4K2C did not prevent this protein from inhibiting PIP5K1A	–	–	–
B1	–	PIP5K1A, which is inhibited by PIP4K2C but not PIP4K2C^VD	–	–
B2	–	PIP4K2C^VD failed to inhibit PIP5K1A activity	–	binding result [3]: no binding
B3	–	–	inhibited	inhibition of PIP5K1A activity in presence of detergent ([4]; 0.1% Triton-X100, no PI(4)P liposomes): eliminated the ability of PIP4K2A to inhibit PIP5K1A
B4	–	–	inhibited	–
